pKd: −log10 of the molar value.
Molecular target: human H3.1/H4 tetramer (ITC sample) (human) (UniProt P68431)
Experiment: ITC

pKd: 5.10
Substance: mouse POLA1 N1 fragment (ITC sample) (from UniProt P33609 1-110) (domain or fragment)
